{
  "source": "patent US20200181677A1",
  "about": "“SCREENING SYSTEM AND METHODS FOR IDENTIFYING ENZYME SUBSTRATES AND MODULATORS OF ENZYME ACTIVITY” (Regents of the University of Minnesota, priority 2017, published 2020)",
  "key": {"[1]": {"target": "T1, PKCα catalytic domain (Homo sapiens, UniProt P17252)", "T1 construct": "All activity assays were performed with 50 nM isolated catalytic domain in PKC Buffer; fused substrate peptide with the fluorophore next to it (N, cleaved yes); second fluorophore of the mCerulean/mCitrine pair (next to the catalytic domain) (N); FLAG; made in house; host or cells: Sf9 insect cells (pBiex1), then on-resin TEV cleavage", "experiment": "Steady-state FRET measurements of peptide sensors", "type": "binding", "settings": "for Binding strength of the peptide to the catalytic domain (steady-state FRET ratio), in words: 10 nm ER/K linker sensors; for Peptide interaction with the catalytic domain on addition of nucleotide (ΔFRET): 100 μM compound, alanine-substituted peptide sensors", "method": "All experiments were performed with 30-50 nM protein in PKC Buffer at 21-22° C. Samples were prepared in tubes pre-coated with 0.1 mg/mL BSA to limit protein sticking to tube walls. Protein samples were excited at 430 nm (mCer) with an 8-nm band pass, and emission monitored from 450 to 650 nm. The FRET ratio was calculated from the ratio of the emission for mCit (525 nm) to mCer (475 nm). Final concentrations of 100 μM ATP, 100 μM ADP, 100 μM Sangivamycin, or BimI were added as indicated. For each experimental condition, ≥3 independent protein batches were used and at least two replicates were measured for each independent experiment (N≥3).\nProtein-protein interactions in live cells using SPASM FRET sensors have been extensively monitored as described elsewhere (Sivaramakrishnan and Spudich, supra; Swanson et al., supra; and Malik et al., J Biol. Chem. 288:17167-17178, 2013). FRET measurements provide a direct measure of the binding strength of the substrate peptides to the kinase catalytic domain (Sivaramakrishnan and Spudich, supra; and Sommese et al., J. Biol. Chem. 292:2873-2880, 2017). Before each experiment, purified sensors were centrifuged (17645 g, 4° C.) to remove any insoluble protein. All experiments were performed with 50 nM protein in PKC Buffer at 21-22° C. Samples were prepared in tubes pre-coated with BSA (0.1 mg/ml) to limit protein loss through adsorption to tube walls. FRET measurements were performed using FluoroMax-4 fluorometer (Horiba Scientific). Sensors were loaded in a quartz cuvette (1 cm path length) and excited at 430 nm with an 8-nm band pass, and emission was monitored (4-nm band pass) from 450 to 650 nm. The FRET ratio was calculated from the ratio of the emission for mCitrine (525 nm) to mCerulean (475 nm). For each experimental condition, ≥2 experimental replicates were measured for ≥3 independent protein batches (N≥6)."}, "[2]": {"target": "T1, PKCα catalytic domain", "experiment": "Kinase activity assay (ATP consumption, Kinase-Glo Max)", "type": "biochemical", "settings": "for Kinase activity toward the peptide substrate, in words: 500 μM peptide, isolated catalytic domain", "method": "All activity assays were performed with 50 nM isolated catalytic domain in PKC Buffer at 21-22° C. for 2-6 minutes. Experiments comparing the basal activity of different FRET sensors (FIG. 5A) were performed with 50 μM MBP peptide from GenScript. For all other activity experiments (FIGS. 3F, 4B, 5B, and 6B), the final peptide concentration was 500 μM. Activity was measured by monitoring ATP consumption with the Kinase-Glo Max Luminescence Assay Kit (Promega; Madison, Wis.). End-point luminescence was measured in white, 96-well plates using a M5e Spectramax spectrophotometer (Molecular Devices; San Jose, Calif.). For each experimental condition, ≥2 independent experiments were performed for ≥3 protein preparations (N≥6).\nKinase specific activity was inferred from the ATP consumed in phosphorylation reactions using the KINASE-GLO® Max Luminescence Assay Kit (Promega; Madison, Wis.). ATP depletion was monitored with the KINASE-GLO® Reagent, which uses luciferin, oxygen, and ATP as substrates in a reaction that produces oxyluciferin and light. The luminescent signal is linearly proportional to the amount of ATP remaining following the phosphorylation reaction.\nActivity assays were performed using the catalytic domain (25-75 nM) and 500-μM peptide in PKC Buffer. Reactions were initiated by the addition of 250 μM ATP to a total reaction volume of 80 μL in U-bottom, white 96-well plates. Following a 3 minute incubation at 22° C., reactions were quenched and subsequent steps were performed as per instructions from the kit provider. End-point luminescence was measured in a FLEXSTATION® 3 plate reader (Molecular Devices). […] For each experimental condition, ≥2 independent measurements were performed for ≥3 protein preparations (N≥6)."}, "[3]": {"target": "T1, PKCα catalytic domain", "experiment": "Time-resolved fluorescence decay (TCSPC) of peptide-catalytic domain FRET sensors", "type": "binding", "settings": "means ± SEM, N = 3; for Mol Fraction Bound / Mol Fraction Unbound: eGFP/mCherry sensors, PKC Buffer containing 100 μM ATP; for Mol Fraction Bound: A2/(A1+A2); for τ2: second lifetime of bi-exponential fit, τ1 fixed to donor linker control (2.56 ± 0.01 ns)", "method": "FIG. 4A is a graph plotting a comparison between steady-state FRET and fractional binding for four alanine-containing peptide sensors. For fractional binding, fluorescence decay single photon counting data was fit to I(t)=A1e^−t/τ^1+A2e^−t/τ^2, where τ1 was set to the lifetime of a 10 nm ER/K linker control (see, TABLE 1). The mol fraction of the bound state(s) was calculated as A2/(A1+A2).\nTime-resolved fluorescence decay measurements were taken by single photon counting (SPC-130-EM, Becker & Hickl) using a 485 nm sub-nanosecond pulse diode laser (PicoQuant), a 519 bandpass filter, and a PMH-100 photomultiplier module (Photonics Solutions) (Autry et al., J. Biol. Chem. 287:39070-39082, 2012). Sensors contained the eGFP and mCherry FRET pair, and all experiments were performed with 50-100 nM protein in PKC Buffer containing 100 μM ATP and 0.1 mg/mL BSA. Data were fit to the second exponential decay, I(t)=A1e^−t/τ^1+A2e^−t/τ^2, where τ1 was set to the lifetime of a 10 nm ER/K linker control. Each experimental condition was collected from three independent protein batches (N=3).\nTime-correlated single photon counting (TCSPC) was used to test whether changes in steady-state FRET reflect changes in fractional binding of the peptide to the catalytic domain (FIG. 1). TCSPC is a method for measuring time-resolved fluorescence that provides information on complex decay kinetics and population states (Lakowicz, Principles of Fluorescence Spectroscopy, 3rd ed., Springer, New York, 2006). Using this method, the relative population of interacting to non-interacting species was measured for four peptide sensors displaying a range of steady-state FRET ratios (FIG. 2)."}},
  "note": "Entries after “also recorded” stand apart in the source; their conditions may differ.",
  "data": [
    {"compound": "NRFARKGALRQKNV [Peptide 14]", "values": [
      {"measurement": "Binding strength of the peptide to the catalytic domain (steady-state FRET ratio), in words", "setting": "[1]", "result": "bound more strongly"},
      {"measurement": "Inhibition of ATP turnover of the catalytic domain for serine-containing peptide #14", "setting": "[2]; equimolar competing peptide", "result": "significantly better at inhibiting catalytic activity"}
    ]},
    {"compound": "Nc1ncnc2c1ncn2[C@@H]1O[C@H](COP(=O)(O)OP(=O)(O)OP(=O)(O)O)[C@@H](O)[C@H]1O", "note": "[ATP, reference compound]", "values": [
      {"measurement": "Peptide interaction with the catalytic domain on addition of nucleotide (ΔFRET)", "setting": "[1]", "result": "significant increase"}
    ]},
    {"compound": "9: peptide substrate ARKRERTYSFGHHA, SEQ ID NO:20, Optimized AKT Sub. [Peptide 9]", "values": [
      {"measurement": "Binding strength of the peptide to the catalytic domain (steady-state FRET ratio), in words", "setting": "[1]", "result": "medium binding"}
    ]},
    {"compound": "NC(=O)c1cn([C@@H]2O[C@H](CO)[C@@H](O)[C@H]2O)c2ncnc(N)c12", "note": "[Sangivamycin, reference compound]", "values": [
      {"measurement": "Peptide interaction with the catalytic domain on addition of nucleotide (ΔFRET)", "setting": "[1]", "result": "also occurred"}
    ]},
    {"compound": "Nc1ncnc2c1ncn2[C@@H]1O[C@H](COP(=O)(O)OP(=O)(O)O)[C@@H](O)[C@H]1O", "note": "[ADP, reference compound]", "values": [
      {"measurement": "Peptide interaction with the catalytic domain on addition of nucleotide (ΔFRET)", "setting": "[1]", "result": "also occurred"}
    ]},
    {"compound": "12: peptide substrate RRFKRQGSFFYFF, SEQ ID NO:26, Optimized PKCζ Sub. [Peptide 12]", "values": [
      {"measurement": "Kinase activity toward the peptide substrate, in words", "setting": "[2]; listed as p12", "result": "lowest kinase activity; also recorded: poor activity"},
      {"measurement": "Effect on catalytic turnover with low affinity-high activity peptide #6", "setting": "[2]; equimolar peptides #6 and #12", "result": "essentially inhibited"}
    ]},
    {"compound": "1: peptide substrate ADKRRSVRIGA, SEQ ID NO:4, from Kit/SCRF; Ala-substituted in FRET sensors [Peptide 1]", "values": [
      {"measurement": "Kinase activity toward the peptide substrate, in words", "setting": "[2]", "result": "high activity"}
    ]},
    {"compound": "2: peptide substrate RVVGGSLRGAQ, SEQ ID NO:6, from PTP1B [Peptide 2]", "values": [
      {"measurement": "Kinase activity toward the peptide substrate, in words", "setting": "[2]; listed as p2", "result": "high kinase activity"}
    ]},
    {"compound": "NRFARKGDLRQKNV [Peptide S14D]", "values": [
      {"measurement": "Binding strength of the peptide to the catalytic domain (steady-state FRET ratio), in words", "setting": "[1]", "result": "decreased affinity"}
    ]},
    {"compound": "3: peptide substrate LAGGFSFKKNK, SEQ ID NO:8, from MARCKS (KLAGFSFKKNK) [Peptide 3]", "values": [
      {"measurement": "Kinase activity toward the peptide substrate, in words", "setting": "[2]", "result": "high activity"}
    ]},
    {"compound": "6: peptide substrate ASQKRPSQRH, SEQ ID NO:14, from Myelin Basic Protein; Ala-substituted in FRET sensors [Peptide 6]", "values": [
      {"measurement": "Mol Fraction Bound", "setting": "[3]", "result": "0.08 ± 0.01"},
      {"measurement": "Mol Fraction Unbound", "setting": "[3]", "result": "0.92 ± 0.01"},
      {"measurement": "τ2", "setting": "[3]", "result": "0.49 ± 0.05", "unit": "ns"}
    ]},
    {"compound": "10: peptide substrate RRRRSIIFI, SEQ ID NO:22, Optimized PKA Sub.; Ala-substituted in FRET sensors [Peptide 10]", "values": [
      {"measurement": "Mol Fraction Bound", "setting": "[3]", "result": "0.16 ± 0.01"},
      {"measurement": "Mol Fraction Unbound", "setting": "[3]", "result": "0.84 ± 0.01"},
      {"measurement": "τ2", "setting": "[3]", "result": "0.83 ± 0.06", "unit": "ns"},
      {"measurement": "Kinase activity toward the peptide substrate, in words", "setting": "[2]", "result": "poor activity"}
    ]},
    {"compound": "11: peptide substrate FKLKRKGTFKKFA, SEQ ID NO:35, Optimized PKCβ Sub.; Ala-substituted sensor form SEQ ID NO:23 [Peptide 11]", "values": [
      {"measurement": "Mol Fraction Bound", "setting": "[3]", "result": "0.15 ± 0.01"},
      {"measurement": "Mol Fraction Unbound", "setting": "[3]", "result": "0.85 ± 0.01"},
      {"measurement": "τ2", "setting": "[3]", "result": "0.88 ± 0.06", "unit": "ns"},
      {"measurement": "Kinase activity toward the peptide substrate, in words", "setting": "[2]", "result": "poor activity"},
      {"measurement": "Activity of the peptide FRET sensor for the same substrate", "setting": "[2]; 10 nm linker sensors, 50 μM MBP peptide", "result": "much lower activity"}
    ]},
    {"compound": "CN(C)CCCn1cc(C2=C(c3c[nH]c4ccccc34)C(=O)NC2=O)c2ccccc21", "note": "[BimI, Bisindolylmaleimide I, reference compound]", "values": [
      {"measurement": "Effect on the ATP-dependent substrate-kinase interaction (steady-state FRET)", "setting": "[1]; peptide #8 and #11 sensors, 100 μM ATP, BimI titration", "result": "abrogated"}
    ]},
    {"compound": "8: peptide substrate IVRKATLRRLL, SEQ ID NO:18, from EGF Receptor; Ala-substituted sensor form SEQ ID NO:17 [Peptide 8]", "values": [
      {"measurement": "Mol Fraction Bound", "setting": "[3]", "result": "0.11 ± 0.01"},
      {"measurement": "Mol Fraction Unbound", "setting": "[3]", "result": "0.89 ± 0.01"},
      {"measurement": "τ2", "setting": "[3]", "result": "0.66 ± 0.06", "unit": "ns"},
      {"measurement": "Binding strength of the peptide to the catalytic domain (steady-state FRET ratio), in words", "setting": "[1]", "result": "medium binding"}
    ]}
  ]
}
